Experimental data from patent publication US20190062705A1 (WAYNE STATE UNIVERSITY, published 2019).

T1: autoimmune regulator (AIRE), mouse, endogenous in B cells (mouse, UniProt Q9Z0E3 1-552, limits assumed)
T1 construct: Endogenous protein in mouse splenic B cells and CH12 cells
T1 sequence: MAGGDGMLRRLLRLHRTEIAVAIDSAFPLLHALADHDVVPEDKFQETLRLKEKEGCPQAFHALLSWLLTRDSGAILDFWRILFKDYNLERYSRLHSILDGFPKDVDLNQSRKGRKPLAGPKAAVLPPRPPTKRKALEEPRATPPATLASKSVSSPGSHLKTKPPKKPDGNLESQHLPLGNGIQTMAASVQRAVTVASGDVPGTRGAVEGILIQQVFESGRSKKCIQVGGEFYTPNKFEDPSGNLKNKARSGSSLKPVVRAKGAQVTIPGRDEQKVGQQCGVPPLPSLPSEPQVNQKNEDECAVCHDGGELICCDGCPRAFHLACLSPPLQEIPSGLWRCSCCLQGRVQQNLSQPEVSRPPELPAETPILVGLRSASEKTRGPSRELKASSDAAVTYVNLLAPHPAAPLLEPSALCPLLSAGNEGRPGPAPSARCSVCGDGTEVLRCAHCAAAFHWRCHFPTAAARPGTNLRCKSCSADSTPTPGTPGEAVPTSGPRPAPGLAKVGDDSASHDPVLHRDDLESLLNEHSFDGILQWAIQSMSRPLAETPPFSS

T2: Bcl10, endogenous in the human Ramos B cell line (human, UniProt O95999 1-233)
T2 sequence (looked up): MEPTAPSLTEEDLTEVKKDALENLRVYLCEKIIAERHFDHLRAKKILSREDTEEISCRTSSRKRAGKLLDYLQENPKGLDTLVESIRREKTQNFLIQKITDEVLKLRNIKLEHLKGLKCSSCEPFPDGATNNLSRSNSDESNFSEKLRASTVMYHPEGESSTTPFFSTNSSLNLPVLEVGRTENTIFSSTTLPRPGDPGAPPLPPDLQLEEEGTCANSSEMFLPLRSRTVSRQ


Tests used:
[1] = molecular target: T1, autoimmune regulator (AIRE), mouse, …; test: co-IP, mouse splenic B cell lysates
[2] = molecular target: T2, Bcl10, endogenous in the human Ramos B …; test: co-IP in Ramos B cells unstimulated or stimulated with TNF for 24 h

binding result [1]	binding result [2]	Binder
binds		activation-induced cytidine deaminase (AID), mouse, endogenous in B cells (enzyme, UniProt Q9WVE0 1-198, looked up, Endogenous protein in mouse splenic B cells and CH12 cells) MDSLLMKQKKFLYHFKNVRWAKGRHETYLCYVVKRRDSATSCSLDFGHLRNKSGCHVELLFLRYISDWDLDPGRCYRVTWFTSWSPCYDCARHVAEFLRWNPNLSLRIFTARLYFCEDRKAEPEGLRRLHRAGVQIGIMTFKDYFYCWNTFVENRERTFKAWEGLHENSVRLTRQLRRILLPLYEVDDLRDAFRMLGF
	no binding	activation-induced cytidine deaminase (AID), human, endogenous in B cells (enzyme, Endogenous protein in lysates of human tonsillar B cells and Ramos B cells) MDSLLMNRRKFLYQFKNVRWAKGRRETYLCYVVKRRDSATSFSLDFGYLRNKNGCHVELLFLRYISDWDLDPGRCYRVTWFTSWSPCYDCARHVADFLRGNPNLSLRIFTARLYFCEDRKAEPEGLRRLHRAGVQIAIMTFKDYFYCWNTFVENHERTFKAWEGLHENSVRLPRQLRRILLPLYEVDDLRDAFRTWGR
